{"source": "paper PMC7925178", "key": {"[1]": {"molecular_target": "AMC009 SOSIP.v5.2 trimer (HIV-1 (subtype B))", "assay": "native gel or EMSA"}, "[2]": {"molecular_target": "AMC009 SOSIP.v5.2 trimer (HIV-1 (subtype B))", "assay": "negative-stain electron microscopy; NS-EM, reference-free 2D class averages of purified SOSIP trimers; percent native-like trimers"}, "[3]": {"molecular_target": "AMC011 SOSIP.v5.2 trimer (HIV-1 (subtype B))", "assay": "native gel or EMSA"}, "[4]": {"molecular_target": "AMC011 SOSIP.v5.2 trimer (HIV-1 (subtype B))", "assay": "negative-stain electron microscopy; NS-EM, reference-free 2D class averages of purified SOSIP trimers; percent native-like trimers"}, "[5]": {"molecular_target": "AMC011 SOSIP.v4.2 trimer (HIV-1 (subtype B))", "assay": "native gel or EMSA"}, "[6]": {"molecular_target": "AMC009 SOSIP.v4.2-D7324 trimer (HIV-1 (subtype B))", "assay": "negative-stain electron microscopy; NS-EM, reference-free 2D class averages of purified SOSIP trimers; percent native-like trimers"}}}
{"substance": "AMC009 SOSIP.v5.2 trimer (complex)", "values": [{"measurement": "stoichiometry N", "setting": "[1]", "value": 3}, {"measurement": "% native-like trimers", "setting": "[2]", "value": 100, "unit": "%"}]}
{"substance": "AMC011 SOSIP.v5.2 trimer (complex)", "values": [{"measurement": "stoichiometry N", "setting": "[3]", "value": 3}, {"measurement": "% native-like trimers", "setting": "[4]", "value": 100, "unit": "%"}]}
{"substance": "AMC011 SOSIP.v4.2 trimer (complex)", "values": [{"measurement": "stoichiometry N", "setting": "[5]", "value": 3}]}
{"substance": "AMC009 SOSIP.v4.2-D7324 trimer (complex)", "values": [{"measurement": "% native-like trimers", "setting": "[6]", "value": 100, "unit": "%"}]}
